B1: 1112-1 IgG (antibody, V domains shown)
VH: QVQLQQPGAELLKPGTSMKLSCKASGYTFSNYWMHWVKLRPGQGFEWIGEINPFNGGTNFNEKFKSKATLTVDRSSSTAYMQLSSVTSEDSAVYYCTIPLSDYGDWFFAVWGAGTTVTVSS
VL: DIVMTQSHKFMSTSIGDRVSITCKASQDVSTAVAWYRQKPGQSPKLLIYSASYRSTGVPDRFTGSGSGTDFTFTISSVQAEDLAVFYCQQHYSAPLTFGAGTKLELK
notes: copies: 2 + 2
B2: 17C7 IgG (antibody, V domains shown)
VH: EVQLVESGGGVVQPGRSLRLSCAASGFTFSTYAMHWVRQAPGKGLEWVAVVSYDGRTKDYADSVKGRFTISRDNSKNTLYLQMNSLRTEDTAVYFCARERFSGAYFDYWGQGTLVTVSS
VL: EIVLTQSPATLSLSPGERATLSCRASQSVSSYLAWYQQKPGQAPRLLIYDASNRATGIPARFSGSGSGTDFTLTISSLEPEDFAVYSCQQRNNWPPTFGGGTKVEIK
notes: IgG1; copies: 2 + 2

Molecular target: Wild-type RABV-G, untagged, full length, on transfected Expi293 cells (Rabies virus, Pasteur (PV) ectodomain; …, UniProt P08667, strain)
Experiment: flow cytometry on cells
Details: one partner purified

Row | Binder | binding result
1 | B1 | binds
2 | B2 | binds

Reference: publication PMC9605875 (Cell Host & Microbe, 2022)
